Measurements reported in patent US20230025732A1 (INNATE PHARMA, published 2023).

T1: human CD39 expressed at the cell surface (human, UniProt P49961 1-510)
T1 construct: On CHO transfectants, Hek-293T transfectants, Ramos and Mino tumor cells; also called huCD39; CHO-huCD39
T1 sequence: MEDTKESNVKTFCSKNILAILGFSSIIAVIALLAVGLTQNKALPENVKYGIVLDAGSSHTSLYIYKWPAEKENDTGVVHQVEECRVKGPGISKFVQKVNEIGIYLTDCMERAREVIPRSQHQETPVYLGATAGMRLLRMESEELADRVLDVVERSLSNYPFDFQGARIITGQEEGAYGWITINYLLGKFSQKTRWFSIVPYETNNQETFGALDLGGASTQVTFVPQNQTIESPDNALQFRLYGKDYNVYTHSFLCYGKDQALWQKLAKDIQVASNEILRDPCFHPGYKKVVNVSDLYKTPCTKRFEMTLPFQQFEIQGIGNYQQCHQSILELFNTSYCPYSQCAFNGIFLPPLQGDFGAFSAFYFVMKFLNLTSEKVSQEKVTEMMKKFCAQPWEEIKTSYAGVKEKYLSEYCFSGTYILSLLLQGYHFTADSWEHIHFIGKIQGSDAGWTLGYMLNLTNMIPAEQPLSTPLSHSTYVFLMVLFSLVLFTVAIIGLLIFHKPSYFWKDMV

B1: mAb13 H3L0 (antibody, human IgG1, V domains shown)
VH: QVQLVQSGAEVKKPGASVKVSCKASGYTFTDYNMHWVRQAPGQRLEWIGYIVPLNGGSTFNQKFKGRATITVDTSASTAYMELSSLRSEDTAVYYCARGGTRFAYWGQGTLVTVSS
VL: DIVMTQSPDSLAVSLGERATINCRASESVDNFGVSFMYWYQQKPGQPPKLLIYGASNQGSGVPDRFSGSGSGTDFTLTISSLQAEDVAVYYCQQTKEVPYTFGGGTKVEIK
B2: mAb7 H2L0 (antibody, human IgG1, V domains shown)
VH: QVQLVQSGAEVKKPGASVKVSCKASGYTFTDYNMHWVRQAPGQRLEWMGYIVPLNGGSTFNQKFKGRATITVDTSASTAYMELSSLRSEDTAVYYCARGGTRFAYWGQGTLVTVSS
VL: DIVMTQSPDSLAVSLGERATINCRASESVDNFGVSFMYWYQQKPGQPPKLLIYGASNQGSGVPDRFSGSGSGTDFTLTISSLQAEDVAVYYCQQTKEVPYTFGGGTKVEIK
B3: mAb22 H4*L0 (antibody, human IgG1, V domains shown)
VH: QVQLVQSGAEVKKPGASVKVSCKASGYTFTDYNMHWVRQAPGQRLEWIGYIVPLNGGSTFSQKFQGRATITVDTSARTAYMELSSLRSEDTAVYYCARGGTRFAYWGQGTLVTVSS
VL: DIVMTQSPDSLAVSLGERATINCRASESVDNFGVSFMYWYQQKPGQPPKLLIYGASNQGSGVPDRFSGSGSGTDFTLTISSLQAEDVAVYYCQQTKEVPYTFGGGTKVEIK
B4: mAb4 H1L0 (antibody, human IgG1, V domains shown)
VH: QVQLVQSGAEVKKPGASVKVSCKASGYTFTDYNMHWVRQAPGQRLEWMGYIVPLNGGSTFNQKFKGRVTITVDTSASTAYMELSSLRSEDTAVYYCARGGTRFAYWGQGTLVTVS
VL: DIVMTQSPDSLAVSLGERATINCRASESVDNFGVSFMYWYQQKPGQPPKLLIYGASNQGSGVPDRFSGSGSGTDFTLTISSLQAEDVAVYYCQQTKEVPYTFGGGTKVEIK
B5: mAb10 H2*L0 (antibody, human IgG1, V domains shown)
VH: QVQLVQSGAEVKKPGASVKVSCKASGYTFTDYNMHWVRQAPGQRLEWMGYIVPLNGGSTFSQKFKGRATITVDTSASTAYMELSSLRSEDTAVYYCARGGTRFAYWGQGTLVTVSS
VL: DIVMTQSPDSLAVSLGERATINCRASESVDNFGVSFMYWYQQKPGQPPKLLIYGASNQGSGVPDRFSGSGSGTDFTLTISSLQAEDVAVYYCQQTKEVPYTFGGGTKVEIK
B6: mAb1 H0L0 (antibody, human IgG1, V domains shown)
VH: QVQLVQSGAEVKKPGASVKVSCKASGYTFTDYNMHWVRQAPGQRLEWMGYIVPLNGGSTFNQKFKGRVTITRDTSASTAYMELSSLRSEDTAVYYCARGGTRFAYWGQGTLVTVSS
VL: DIVMTQSPDSLAVSLGERATINCRASESVDNFGVSFMYWYQQKPGQPPKLLIYGASNQGSGVPDRFSGSGSGTDFTLTISSLQAEDVAVYYCQQTKEVPYTFGGGTKVEIK
B7: mAb16 H3*L0 (antibody, human IgG1, V domains shown)
VH: QVQLVQSGAEVKKPGASVKVSCKASGYTFTDYNMHWVRQAPGQRLEWIGYIVPLNGGSTFSQKFQGRATITVDTSASTAYMELSSLRSEDTAVYYCARGGTRFAYWGQGTLVTVSS
VL: DIVMTQSPDSLAVSLGERATINCRASESVDNFGVSFMYWYQQKPGQPPKLLIYGASNQGSGVPDRFSGSGSGTDFTLTISSLQAEDVAVYYCQQTKEVPYTFGGGTKVEIK
B8: mAb19 H4L0 (antibody, human IgG1, V domains shown)
VH: QVQLVQSGAEVKKPGASVKVSCKASGYTFTDYNMHWVRQAPGQRLEWIGYIVPLNGGSTFNQKFKGRATITVDTSARTAYMELSSLRSEDTAVYYCARGGTRFAYWGQGTLVTVSS
VL: DIVMTQSPDSLAVSLGERATINCRASESVDNFGVSFMYWYQQKPGQPPKLLIYGASNQGSGVPDRFSGSGSGTDFTLTISSLQAEDVAVYYCQQTKEVPYTFGGGTKVEIK
B9: mAb8 H2L1 (antibody, human IgG1, V domains shown)
VH: QVQLVQSGAEVKKPGASVKVSCKASGYTFTDYNMHWVRQAPGQRLEWMGYIVPLNGGSTFNQKFKGRATITVDTSASTAYMELSSLRSEDTAVYYCARGGTRFAYWGQGTLVTVSS
VL: DIVMTQSPDSLAVSLGERATINCRASESVDNFGVSFMYWFQQKPGQPPKLLIYGASNQGSGVPDRFSGSGSGTDFTLTISSLQAEDVAVYYCQQTKEVPYTFGGGTKVEIK
B10: mAb5 H1L1 (antibody, human IgG1, V domains shown)
VH: QVQLVQSGAEVKKPGASVKVSCKASGYTFTDYNMHWVRQAPGQRLEWMGYIVPLNGGSTFNQKFKGRVTITVDTSASTAYMELSSLRSEDTAVYYCARGGTRFAYWGQGTLVTVS
VL: DIVMTQSPDSLAVSLGERATINCRASESVDNFGVSFMYWFQQKPGQPPKLLIYGASNQGSGVPDRFSGSGSGTDFTLTISSLQAEDVAVYYCQQTKEVPYTFGGGTKVEIK
B11: mAb14 H3L1 (antibody, human IgG1, V domains shown)
VH: QVQLVQSGAEVKKPGASVKVSCKASGYTFTDYNMHWVRQAPGQRLEWIGYIVPLNGGSTFNQKFKGRATITVDTSASTAYMELSSLRSEDTAVYYCARGGTRFAYWGQGTLVTVSS
VL: DIVMTQSPDSLAVSLGERATINCRASESVDNFGVSFMYWFQQKPGQPPKLLIYGASNQGSGVPDRFSGSGSGTDFTLTISSLQAEDVAVYYCQQTKEVPYTFGGGTKVEIK
B12: mAb21 H4L1* (antibody, human IgG1, kappa, V domains shown)
VH: QVQLVQSGAEVKKPGASVKVSCKASGYTFTDYNMHWVRQAPGQRLEWIGYIVPLNGGSTFNQKFKGRATITVDTSARTAYMELSSLRSEDTAVYYCARGGTRFAYWGQGTLVTVSS
VL: DIVMTQSPDSLAVSLGERATINCKASESVDNFGVSFMYWFQQKPGQPPKLLIYGASNQGSGVPDRFSGSGSGTDFTLTISSLQAEDVAVYYCQQTKEVPYTFGGGTKVEIKR
B13: mAb9 H2L1* (antibody, human IgG1, V domains shown)
VH: QVQLVQSGAEVKKPGASVKVSCKASGYTFTDYNMHWVRQAPGQRLEWMGYIVPLNGGSTFNQKFKGRATITVDTSASTAYMELSSLRSEDTAVYYCARGGTRFAYWGQGTLVTVSS
VL: DIVMTQSPDSLAVSLGERATINCKASESVDNFGVSFMYWFQQKPGQPPKLLIYGASNQGSGVPDRFSGSGSGTDFTLTISSLQAEDVAVYYCQQTKEVPYTFGGGTKVEIK
B14: mAb18 H3*L1* (antibody, human IgG1, V domains shown)
VH: QVQLVQSGAEVKKPGASVKVSCKASGYTFTDYNMHWVRQAPGQRLEWIGYIVPLNGGSTFSQKFQGRATITVDTSASTAYMELSSLRSEDTAVYYCARGGTRFAYWGQGTLVTVSS
VL: DIVMTQSPDSLAVSLGERATINCKASESVDNFGVSFMYWFQQKPGQPPKLLIYGASNQGSGVPDRFSGSGSGTDFTLTISSLQAEDVAVYYCQQTKEVPYTFGGGTKVEIK
B15: mAb6 H1L1* (antibody, human IgG1, V domains shown)
VH: QVQLVQSGAEVKKPGASVKVSCKASGYTFTDYNMHWVRQAPGQRLEWMGYIVPLNGGSTFNQKFKGRVTITVDTSASTAYMELSSLRSEDTAVYYCARGGTRFAYWGQGTLVTVS
VL: DIVMTQSPDSLAVSLGERATINCKASESVDNFGVSFMYWFQQKPGQPPKLLIYGASNQGSGVPDRFSGSGSGTDFTLTISSLQAEDVAVYYCQQTKEVPYTFGGGTKVEIK
B16: mAb15 H3L1* (antibody, human IgG1, V domains shown)
VH: QVQLVQSGAEVKKPGASVKVSCKASGYTFTDYNMHWVRQAPGQRLEWIGYIVPLNGGSTFNQKFKGRATITVDTSASTAYMELSSLRSEDTAVYYCARGGTRFAYWGQGTLVTVSS
VL: DIVMTQSPDSLAVSLGERATINCKASESVDNFGVSFMYWFQQKPGQPPKLLIYGASNQGSGVPDRFSGSGSGTDFTLTISSLQAEDVAVYYCQQTKEVPYTFGGGTKVEIK
B17: mAb3 H0L1* (antibody, human IgG1, V domains shown)
VH: QVQLVQSGAEVKKPGASVKVSCKASGYTFTDYNMHWVRQAPGQRLEWMGYIVPLNGGSTFNQKFKGRVTITRDTSASTAYMELSSLRSEDTAVYYCARGGTRFAYWGQGTLVTVSS
VL: DIVMTQSPDSLAVSLGERATINCKASESVDNFGVSFMYWFQQKPGQPPKLLIYGASNQGSGVPDRFSGSGSGTDFTLTISSLQAEDVAVYYCQQTKEVPYTFGGGTKVEIK
B18: mAb24 H4*L1* (antibody, human IgG1, V domains shown)
VH: QVQLVQSGAEVKKPGASVKVSCKASGYTFTDYNMHWVRQAPGQRLEWIGYIVPLNGGSTFSQKFQGRATITVDTSARTAYMELSSLRSEDTAVYYCARGGTRFAYWGQGTLVTVSS
VL: DIVMTQSPDSLAVSLGERATINCKASESVDNFGVSFMYWFQQKPGQPPKLLIYGASNQGSGVPDRFSGSGSGTDFTLTISSLQAEDVAVYYCQQTKEVPYTFGGGTKVEIK
B19: mAb12 H2*L1* (antibody, human IgG1, V domains shown)
VH: QVQLVQSGAEVKKPGASVKVSCKASGYTFTDYNMHWVRQAPGQRLEWMGYIVPLNGGSTFSQKFKGRATITVDTSASTAYMELSSLRSEDTAVYYCARGGTRFAYWGQGTLVTVSS
VL: DIVMTQSPDSLAVSLGERATINCKASESVDNFGVSFMYWFQQKPGQPPKLLIYGASNQGSGVPDRFSGSGSGTDFTLTISSLQAEDVAVYYCQQTKEVPYTFGGGTKVEIK

The binders below were run against T1, human CD39 expressed at the cell surface (assay: flow cytometry titration on Ramos lymphoma cells (Mean of Fluorescence), panel L0).

Binding result, binds:
B1
B2
B3
B4
B5
B6
B7
B8

What follows are binders tested against T1, human CD39 expressed at the cell surface (assay: flow cytometry titration on Ramos lymphoma cells (Mean of Fluorescence), panel L1).

Binding result, binds:
B9
B10
B11

The binders below were run against T1, human CD39 expressed at the cell surface (assay: flow cytometry titration on Ramos lymphoma cells (Mean of Fluorescence), panel L1*).

Binding result, binds:
B12
B13
B14
B15
B16
B17
B18
B19
